Measured values published in patent US8080531B2, “Methods for modulating checkpoint activation through TopBP1” (California Institute of Technology, priority 2006, dated 2011).

Tests used:
Xatr-Xatrip [1] = biological target: Xatr-Xatrip (Xenopus laevis, UniProt Q9DE14); experiment: Kinase assay of Xatr-Xatrip complexes isolated from Xenopus egg extracts; type: biochemical; parameters: increase of kinase activity of Xatr; other: Xatr immunoprecipitated from Xatrip-depleted extracts
Source text: (§1) Specifically, Applicants first isolated Xatr from egg extracts by pull-downs with FLAG-tagged Xenopus ATRIP (Xatrip). For these experiments, Applicants used both full-length Xatrip and an N-terminal truncation mutant (ΔN222) that supports normal Xatr-dependent activation of Xchk1 in egg extracts (Kumagai et al., 2004; Kim et al., 2005).
(§2) Applicants eluted the beads with FLAG peptide and mixed the eluates with a His6-tagged version of XtopBP1 that had been purified from baculovirus-infected insect cells (FIG. 1B). Finally, Applicants added ^32P-ATP and PHAS-I, a commonly used model substrate for ATR (Abraham, 2001).
Xatrip-FLAG and XatripΔN222-FLAG (20 ng/μl each) were incubated in interphase extracts containing anti-FLAG M2 antibody beads (Sigma) for 60 min at room temperature. The beads were isolated and washed twice with buffer A (10 mM HEPES-KOH (pH 7.5), 150 mM NaCl, 0.1% CHAPS, and 2.5 mM EGTA) and twice with HEPES-buffered saline (HBS; 10 mM HEPES-KOH (pH 7.5) and 150 mM NaCl). Xatr-Xatrip complexes were eluted in one-tenth the volume of the egg extract in HBS containing 0.1 mg/ml 3×-FLAG peptide (Sigma) for 60 min at 4° C. Eluates (2 μl) were used for kinase assays as described below. […]

Xatr-Xatrip [2] = experiment: as above; type: biochemical; conditions: for activation of Xatr kinase activity toward PHAS-I: isolated Xatr-Xatrip complexes, 32P-ATP, result in words
Source text: as §1, §2
Xatrip-FLAG and XatripΔN222-FLAG (20 ng/μl each) were incubated in interphase extracts containing anti-FLAG M2 antibody beads (Sigma) for 60 min at room temperature. The beads were isolated and washed twice with buffer A (10 mM HEPES-KOH (pH 7.5), 150 mM NaCl, 0.1% CHAPS, and 2.5 mM EGTA) and twice with HEPES-buffered saline (HBS; 10 mM HEPES-KOH (pH 7.5) and 150 mM NaCl). Xatr-Xatrip complexes were eluted in one-tenth the volume of the egg extract in HBS containing 0.1 mg/ml 3×-FLAG peptide (Sigma) for 60 min at 4° C. Eluates (2 μl) were used for kinase assays as described below.
(§3) Samples were incubated in 20 μl kinase buffer (50 mM Tris-HCl (pH 7.5), 10 mM MgCl2, 1 mM dithiothreitol, 100 μM nonradioactive ATP, and 100 μCi/ml [γ-^32P]ATP) containing 12.5 μg/ml PHAS-I or 50 μg/ml GST-Xmcm2 (62-122) for 30 min at room temperature. GST-XtopBP1 (972-1279) was added at a final concentration of 100 μg/ml unless indicated otherwise. In some cases, GST-Xmcm2 (62-122), GST-Xchk1 (306-352), or full-length Xchk1-Myc-His6 were used as substrates with only […] nonradioactive ATP. Reactions were terminated by boiling in gel sample buffer.

Xchk1 [3] = experiment: Checkpoint-dependent phosphorylation of Xchk1 in XtopBP1-depleted egg extracts with aphidicolin and sperm nuclei; type: biochemical, Xenopus; conditions: added back to XtopBP1-depleted extract, aphidicolin
Source text: Applicants proceeded to remove endogenous XtopBP1 from egg extracts by immunodepletion with anti-XtopBP1 antibodies (FIG. 7C). In parallel, Applicants used control antibodies to prepare mock-depleted extract. Next, Applicants added back wild-type His6-XtopBP1 or the His6-XtopBP1-W1138R mutant to aliquots of the XtopBP1-depleted extract. Finally, Applicants added aphidicolin and demembranated Xenopus sperm nuclei to the various extracts in order to create stalled replication forks and then examined phosphorylation of Xchk1 (FIG. 7D).
(§4) Extracts from Xenopus eggs were prepared as described (Kumagai and Dunphy, 2000). A DNA replication checkpoint response was induced by addition of 50 μg/ml aphidicolin into extracts containing demembranated sperm nuclei (3000 per μl) (Kumagai and Dunphy, 2000). To monitor DNA replication, extracts containing 1000 sperm nuclei/μl were incubated with [α-^32P]dATP (Yoo et al., 2004).
Xatr and Xatrip were immunodepleted as described (Kumagai et al., 2004). For immunodepletion of XtopBP1, we incubated 100 μl egg extract twice for 60 min with 10 μl Affiprep protein A beads (BioRad) containing 35 μg anti-XtopBP1 antibodies.

human Mcm2 on S108 = experiment: Phosphorylation of Mcm2 on S108 in transfected human 293T cells; type: cell-based; conditions: immunoblotting
Source text: To pursue this issue further, Applicants asked whether the ATR-activating domain of TopBP1 could induce ATR-dependent phosphorylation in human cells. For this purpose, Applicants constructed a version of the enhanced green fluorescent protein (EGFP) containing the SV40 nuclear localization sequence and residues 978-1286 of human TopBP1 (equivalent to residues 972-1279 of XtopBP1). Applicants also produced the W1145R mutant of this plasmid (analogous to the W1138R mutant of XtopBP1). Applicants transfected plasmids encoding these proteins into human 293T cells and performed immunoblotting with anti-phosphopeptide antibodies that detect phosphorylation of human Mcm2 on S108 (which corresponds to S92 of Xmcm2) (Cortez et al., 2004; Yoo et al., 2004).
pEGFP-NLS-TopBP1 (978-1286), which encodes EGFP followed by a nuclear localization sequence (KKKRKV, SEQ ID NO: 11) and amino acids 978-1286 of human TopBP1, was prepared from pEGFP (Clontech) by standard polymerase chain reaction-based methods. Plasmids were transfected into 293T cells with Lipofectamine 2000 (Invitrogen).

Xatr-Xatrip [4] = experiment: Glutathione bead pull-down of Xatr and Xatrip from egg extracts; type: binding, Xenopus; conditions: egg extracts, immunoblotting
Procedure: Specifically, Applicants incubated glutathione beads containing GST-XtopBP1 (972-1279) in egg extracts, reisolated the beads, and performed immunoblotting for both Xatr and Xatrip. […] In addition, in other experiments, there was no binding of Xatr or Xatrip to beads containing GST fusions of the 1-348, 333-646, or 623-984 segments from XtopBP1 (data not shown).
Applicants also tested to see if the association of XtopBP1 with Xatr depends upon Xatrip. For this experiment, Applicants removed endogenous Xatrip from egg extracts by immunodepletion with anti-Xatrip antibodies. As described previously, this procedure leaves behind approximately 30% of the endogenous Xatr, the fraction that is not in a complex with Xatrip (Kumagai et al., 2004). Next, Applicants added GST-XtopBP1 (972-1279) to the Xatrip-depleted extracts and to mock-depleted extracts that had been prepared in parallel.

human ATR [5] = biological target: T1, human ATR (Homo sapiens, UniProt Q13535); experiment: Kinase assay of recombinant human FLAG-ATR against S92 of GST-Xmcm2 (62-122); type: biochemical; conditions: wild-type human FLAG-ATR from U2OS nuclear extracts
T1 construct: expressed in transfected cells; host or cells: U2OS GW33 cells (doxycycline-inducible), nuclear extract, anti-FLAG purification
Procedure: (§5) Specifically, Applicants isolated wild-type and kinase-deficient versions of FLAG-tagged human ATR from nuclear extracts of U2OS cells that conditionally express these proteins (FIG. 5C). The recombinant ATR proteins were purified with anti-FLAG magnetic beads under conditions that preserve the binding of endogenous ATRIP (Ünsal-Kacmaz and Sancar, 2004). Next, Applicants incubated both the wild-type and kinase-deficient FLAG-ATR preparations in the absence or presence of GST-XtopBP1 (972-1279), and measured kinase activity against S92 of the GST-Xmcm2 (62-122) peptide.
as §3
(§6) U2OS cells conditionally expressing wild-type (GW33) or kinase-deficient (GK41) human FLAG-ATR were cultured as described (Nghiem et al., 2001). Cells were induced with 1 μg/ml doxycycline for 48 hr. Nuclear extracts were prepared as described (Dignam et al., 1983) except that nuclei were lysed by brief sonication and the concentration of NaCl in the nuclear isolation buffer was reduced to 350 mM in order to preserve the binding of endogenous ATRIP to recombinant ATR. FLAG-ATR proteins were isolated by an overnight incubation with anti-FLAG antibodies bound to protein G-magnetic beads (Dynal) and eluted with 3×-FLAG peptide.

human ATR [6] = experiment: as above; type: biochemical; conditions: kinase-deficient human FLAG-ATR
Procedure: as §5, §3, §6

Xchk1 [7] = experiment: Ectopic phosphorylation of 35S-Xchk1 in Xenopus egg extracts without checkpoint-inducing DNA; type: biochemical; conditions: 35S-Xchk1, tautomycin, no checkpoint-inducing DNA template
Procedure: Because the GST-XtopBP1 (972-1279) fragment could activate Xatr in vitro without the inclusion of DNA, Applicants reasoned that ectopic addition of this fragment to Xenopus egg extracts might also be able to trigger the Xatr-dependent phosphorylation of Xchk1 even in the absence of a checkpoint-inducing DNA template.
as §4

Sequence of Xatr-Xatrip (Q9DE14 whole entry, the tested form may be a part): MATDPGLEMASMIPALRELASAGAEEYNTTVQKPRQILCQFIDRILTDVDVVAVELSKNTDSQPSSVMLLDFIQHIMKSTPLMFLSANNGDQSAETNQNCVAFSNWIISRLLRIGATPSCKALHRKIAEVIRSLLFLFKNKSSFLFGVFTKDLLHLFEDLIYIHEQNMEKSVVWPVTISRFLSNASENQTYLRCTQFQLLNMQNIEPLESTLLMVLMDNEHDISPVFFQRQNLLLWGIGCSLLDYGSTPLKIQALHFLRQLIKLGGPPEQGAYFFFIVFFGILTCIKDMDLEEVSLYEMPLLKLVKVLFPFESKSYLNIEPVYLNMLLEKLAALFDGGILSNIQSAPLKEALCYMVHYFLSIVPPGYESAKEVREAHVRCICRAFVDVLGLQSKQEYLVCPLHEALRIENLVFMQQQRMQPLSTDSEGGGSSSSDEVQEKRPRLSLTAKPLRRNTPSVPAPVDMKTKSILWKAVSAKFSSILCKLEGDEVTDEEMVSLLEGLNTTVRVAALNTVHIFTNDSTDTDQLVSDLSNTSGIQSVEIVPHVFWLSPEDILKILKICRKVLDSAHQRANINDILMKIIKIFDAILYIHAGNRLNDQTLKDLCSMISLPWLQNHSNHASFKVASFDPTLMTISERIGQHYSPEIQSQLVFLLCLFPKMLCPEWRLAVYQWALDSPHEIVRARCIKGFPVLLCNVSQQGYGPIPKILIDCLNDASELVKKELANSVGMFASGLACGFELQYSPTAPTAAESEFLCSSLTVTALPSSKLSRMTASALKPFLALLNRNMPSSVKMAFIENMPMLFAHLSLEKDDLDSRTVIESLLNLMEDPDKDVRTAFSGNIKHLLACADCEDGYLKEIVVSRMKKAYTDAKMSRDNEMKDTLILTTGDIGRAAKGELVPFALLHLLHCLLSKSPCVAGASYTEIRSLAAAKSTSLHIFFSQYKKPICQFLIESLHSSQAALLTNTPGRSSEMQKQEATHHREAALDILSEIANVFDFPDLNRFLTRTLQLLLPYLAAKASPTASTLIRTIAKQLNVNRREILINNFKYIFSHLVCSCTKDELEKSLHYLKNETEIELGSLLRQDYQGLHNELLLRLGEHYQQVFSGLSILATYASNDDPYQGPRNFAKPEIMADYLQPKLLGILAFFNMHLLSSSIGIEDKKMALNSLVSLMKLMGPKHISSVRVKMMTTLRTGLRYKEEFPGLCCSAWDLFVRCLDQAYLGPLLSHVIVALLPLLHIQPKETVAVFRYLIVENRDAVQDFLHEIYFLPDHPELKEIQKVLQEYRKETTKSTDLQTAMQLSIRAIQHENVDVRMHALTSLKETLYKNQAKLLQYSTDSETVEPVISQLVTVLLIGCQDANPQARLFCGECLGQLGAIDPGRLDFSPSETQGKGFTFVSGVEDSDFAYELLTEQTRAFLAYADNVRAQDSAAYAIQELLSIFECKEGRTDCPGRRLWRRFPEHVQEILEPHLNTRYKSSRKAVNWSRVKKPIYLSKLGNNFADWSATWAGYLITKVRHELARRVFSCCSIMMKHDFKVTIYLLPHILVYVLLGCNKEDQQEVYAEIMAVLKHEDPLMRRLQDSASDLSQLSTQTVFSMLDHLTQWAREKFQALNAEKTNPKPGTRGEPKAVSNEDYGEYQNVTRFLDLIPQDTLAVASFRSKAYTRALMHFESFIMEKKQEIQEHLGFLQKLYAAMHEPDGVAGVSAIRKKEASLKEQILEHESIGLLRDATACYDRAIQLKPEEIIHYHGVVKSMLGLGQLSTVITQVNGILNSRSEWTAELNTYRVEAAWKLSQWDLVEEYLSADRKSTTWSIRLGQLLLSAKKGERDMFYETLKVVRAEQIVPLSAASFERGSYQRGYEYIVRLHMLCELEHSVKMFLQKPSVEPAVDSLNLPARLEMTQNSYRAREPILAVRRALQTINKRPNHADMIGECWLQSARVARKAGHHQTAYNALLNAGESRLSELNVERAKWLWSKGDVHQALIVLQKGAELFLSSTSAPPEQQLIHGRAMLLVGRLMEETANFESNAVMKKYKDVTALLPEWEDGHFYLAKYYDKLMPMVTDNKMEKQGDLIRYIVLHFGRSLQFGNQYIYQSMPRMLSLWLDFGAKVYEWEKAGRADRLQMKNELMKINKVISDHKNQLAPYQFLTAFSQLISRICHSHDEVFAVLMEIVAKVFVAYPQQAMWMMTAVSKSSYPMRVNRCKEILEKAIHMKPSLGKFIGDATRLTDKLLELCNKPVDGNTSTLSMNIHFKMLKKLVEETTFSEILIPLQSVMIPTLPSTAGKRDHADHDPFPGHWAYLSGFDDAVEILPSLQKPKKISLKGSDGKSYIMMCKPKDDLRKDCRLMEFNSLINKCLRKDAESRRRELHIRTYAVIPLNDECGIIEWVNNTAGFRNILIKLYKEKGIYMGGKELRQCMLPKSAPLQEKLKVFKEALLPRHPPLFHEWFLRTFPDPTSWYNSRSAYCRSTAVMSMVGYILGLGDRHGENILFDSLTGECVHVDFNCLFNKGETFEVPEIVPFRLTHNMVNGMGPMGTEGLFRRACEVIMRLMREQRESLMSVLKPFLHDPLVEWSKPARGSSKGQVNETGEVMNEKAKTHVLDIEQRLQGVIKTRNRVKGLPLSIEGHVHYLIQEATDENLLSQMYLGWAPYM
Sequence of Xatr-Xatrip (Xenopus laevis, UniProt Q9DE14) (Q9DE14 whole entry, the tested form may be a part): as above

Molecule: Cn1c(=O)c2c(ncn2C)n(C)c1=O [caffeine, reference compound]
- IC50 (Xatr-Xatrip [1]; Xatr-XatripΔN222 activated by His6-XtopBP1, PHAS-I substrate, 0.04-5 mM caffeine, read-out: half-maximal inhibition of the XtopBP1-activated form of Xatr): ~400 µM

Molecule: XtopBP1: His6-tagged full-length Xenopus TopBP1 purified from baculovirus-infected insect cells
- half-maximal induction of kinase activity (Xatr-Xatrip [2]; Xatr-XatripΔN222, PHAS-I substrate, dose-response 0.5-30 μg/ml XtopBP1): 10 to 15 µg/mL
- induced kinase activity toward PHAS-I (Xatr-Xatrip [2]; XatripΔN222-FLAG preparation from Xatr-depleted extracts): could not elicit any kinase activity
- induced kinase activity toward PHAS-I (Xatr-Xatrip [2]; XatripΔN222-FLAG preparation from mock-depleted extracts): induced strong kinase activity
- activation of Xatr kinase activity toward PHAS-I (Xatr-Xatrip [2]): very large increase
- kinase activity toward PHAS-I of the preparation alone (Xatr-Xatrip [2]; recombinant XtopBP1 without Xatr-Xatrip): negligible kinase activity
- rescue of phosphorylation of Xchk1 (Xchk1 [3]): rescue the phosphorylation of Xchk1 fully
- increase of kinase activity of Xatr (Xatr-Xatrip [1]; Xatr immunoprecipitated from Xatrip-depleted extracts): could not significantly increase

B1: W1145R mutant: W1145R mutant of EGFP-NLS-TopBP1 (978-1286), analogous to the W1138R mutant of XtopBP1 (protein)
chain: KKKRKVAQECKHLPESLYPHTYNPKMSLDISAVQDGRLCNSRLLSAVSSTKDDEPDPLILEENDVDNMATNNKESAPSNGSGKNDSKGVLTQTLEMRENFQKQLQEIMSATSIVKPQGQRTSLSRSGCNSASSTPDSTRSARSGRSRVLEALRQSRQTVPDVNTEPSQNEQIIRDDPTAREERARLASNLQWPSCPTQYSELQVDIQNLEDSPFQKPLHDSEIAKQAVCDPGNIRVTEAPKHPISEELETPIKDSHLIPTPQAPSIAFPLANPPVAPHPREKIITIEETHEELKKQYIFQLSSLNPQERIDYCHL
modifications: left off: large carriers
notes: W1145R mutant of EGFP-NLS-TopBP1 (978-1286), analogous to the W1138R mutant of XtopBP1
- phosphorylation of Mcm2 on S108 (human Mcm2 on S108): no effect

B2: W1138R mutant of GST-XtopBP1 (972-1279): point mutant of the fragment in which the tryptophan in the WDDP motif was changed to arginine (protein)
chain: EQQKRVPEALYPHTYNPKMSLDISAVQDGSYTASKFSADTSLQQDENSELQLQQNNKFGETSDDQVKKAAGDGNPQNPSKDVKGALTQTLEMRENFQRQLQEFMSATSVVKPRGSVGRAGFDNSPCTPEGARSTRNGRSRVLEALRQSRQAMTDLNTEPSQNEQIIRDDPTAREERAKLVSNLQWPDSPSQYSEQLQHNMNDAGGNYTPAKESLTDSEIAELEACEFEPKSAMRTPVIENNLQSPTKPDHLTPTPQAPSIAFPLANPPVAPQPREKPVQPFSKEETLKERRFQLSSLDPQERIDYSQL
modifications: left off: a dimerising Fc or GST; small tags and cut ends
notes: point mutant of the fragment in which the tryptophan in the WDDP motif was changed to arginine
- activation of Xatr kinase activity toward PHAS-I (Xatr-Xatrip [2]): totally lost its capacity
- binding of Xatr and Xatrip to glutathione beads (Xatr-Xatrip [4]): retains significant ability to bind Xatr-Xatrip
- kinase activity of wild-type FLAG-ATR (human ATR [5]): did not induce any activation
- activity of kinase-deficient FLAG-ATR (human ATR [6]): neither the intact nor W1138R mutant form of GST-XtopBP1 (972-1279) had any effect
- phosphorylation of Xchk1 in egg extracts (Xchk1 [7]): none of the ΔRQLQ, ΔWDDP, or W1138R mutants of the 972-1279 fragment could induce ectopic activation
